Experimental data reported in US20220396618A1 (RESEARCH FOUNDATION FOR THE STATE UNIVERSITY OF NEW YORK, published 2022).

Experiments:
[1] = target: T1, human RAGE R216A-R218A mutant (human, UniProt Q15109 23-342); assay: ELISA on immobilized antigen
T1 construct: extracellular domain; Mutant of the human RAGE extracellular domain, immobilized for ELISA
Description: As shown in the dashed oval, the epitope of B2 mAb includes R216 and R218. Panel B depicts the binding of B2 mAbs to immobilized WT human RAGE or the R216A-R218A mutant as determined by ELISA. The binding of B2 mAbs to R216A-R218A was reduced by 40-fold.
200 ng of human RAGE extracellular domain or R216A-R218A mutant were immobilized onto 96-well high-binding ELISA plate. Plates were blocked with 5% BSA in PBS and incubated with 0.01 to 10 nM of rabbit B2 mAb for 1 hour at room temperature. Bound B2 mAbs were quantitated with anti-rabbit-HRP (Jackson Immunology) followed by the addition of HRP substrate (Thermo Scientific).

[2] = target: T2, human RAGE extracellular domain (human, UniProt Q15109 23-342); assay: ELISA, apparent Kd
T2 construct: extracellular domain; Immobilized on ELISA plates; also called WT human RAGE

murine RAGE V-C1 domain = target: T3, murine RAGE V-C1 domain (murine, UniProt Q62151 23-231, limits assumed); assay: ELISA, apparent Kd
T3 construct: domain: V-C1 domain; Used as the immunogen and as the ELISA antigen; also called mVC1; WT mVC1

murine RAGE = murine RAGE (murine, UniProt Q62151 23-231, limits assumed); assay: ELISA, apparent Kd
Sequence of murine RAGE (Q62151 23-231 limits assumed): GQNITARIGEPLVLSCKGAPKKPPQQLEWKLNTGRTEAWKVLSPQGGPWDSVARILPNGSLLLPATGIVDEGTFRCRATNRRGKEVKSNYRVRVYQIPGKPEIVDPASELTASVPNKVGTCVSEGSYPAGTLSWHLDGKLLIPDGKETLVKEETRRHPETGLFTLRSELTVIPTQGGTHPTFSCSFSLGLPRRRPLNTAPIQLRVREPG

T3 sequence (Q62151 23-231 limits assumed): as above
T2 sequence (Q15109 23-342): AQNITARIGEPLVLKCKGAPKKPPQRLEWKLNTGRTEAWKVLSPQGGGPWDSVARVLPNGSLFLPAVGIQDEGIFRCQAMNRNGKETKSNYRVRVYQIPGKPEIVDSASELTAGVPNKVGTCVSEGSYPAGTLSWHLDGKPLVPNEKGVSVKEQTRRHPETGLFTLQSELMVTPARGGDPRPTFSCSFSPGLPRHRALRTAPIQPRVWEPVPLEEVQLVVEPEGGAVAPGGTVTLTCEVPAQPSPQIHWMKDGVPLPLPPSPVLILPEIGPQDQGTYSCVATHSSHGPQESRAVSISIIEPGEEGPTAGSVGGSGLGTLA
T1 sequence (Q15109 23-342 R216A/R218A): as the sequence (Q15109 23-342) above, with R194A, R196A counted along it

fold reduction of binding against WT human RAGE [1]: 40 fold
Kd [2]: 80 pM
Kd (murine RAGE V-C1 domain): 80 pM
Kd (murine RAGE): 30 pM
B1: rabbit B2 mAb (antibody, V domains shown)
VH: QSVKESEGGLFKPTDTLTLTCTVSGFTISSYDMSWVRQAPGKGLEWIGAIDSSGSAHYASWARSRSTITRNTNLNTVTLKMTSLTAADTATYFCWNANIWGPGTLVTVSS
VL: AQVLTQTASPVSAAVGSTVTINCQASQNVYDNNHLSWYQQKRGQPPKLLIYYASALASGVSSRFKGSGSGTQFTLTINDVQCDDAATYYCLGSYDCSADCFAFGGGTEVVV
notes: Rabbit monoclonal antibody from a hybridoma; also called B2 mAbs; rabbit mAb B2
